Changes are numbered by the printed parent chain.
Assays:
[1] = target: T1, human EGFRvIII protein on the cell surface (human, UniProt P00533 25-1210); test: cell-based or functional assay
[2] = target: T2, human EGFRvIII-hFc protein (human, UniProt P00533 25-645); test: ELISA, plate coated with human EGFRvIII-hFc, HRP secondary antibody, absorbance at 450 nm
T2 construct: extracellular domain; made in HEK293 cells, purified on protein A; also called immunogen A; hFc-tagged EGFRvIII protein; not shown: human IgG Fc fragment (hFc) of the pCpC vector
Protocol: The purified immunogen A (EGFRvIII-hFc) obtained in example 1 (for the preparation method, see step (I) in example 1) is diluted with PBS to a final concentration of 1.0 μg/mL, and then added to a 96-well ELISA plate at 100 μl/well. The plate is sealed with a plastic film and incubated at 4° C. overnight. The next day, the plate is washed twice with a plate washing solution [PBS+0.01% (v/v) Tween20], and added with a blocking solution [PBS+0.01% (v/v) Tween20+1% (w/w) BSA] for blocking 2 hours at room temperature. […] The plate is incubated for 2 hours at 37° C., and then washed 3 times with the plate washing solution [PBS+0.01% (v/v) Tween20]. The plate is added with an HRP (horseradish peroxidase) labeled secondary antibody (purchased from Sigma), incubated at 37° C. for 2 hours, and then washed 3 times with the plate washing solution [PBS+0.01% (v/v) Tween20]. The plate is added with 100 μl of TMB substrate/well, incubated for 30 minutes at room temperature, and then added with 100 μl of stopping solution (1.0N HCl)/well. A450 nm value is read using an ELISA plate reader (SpectraMax 384plus, purchased from Molecular Device), and the results are shown in FIG. 11 and table 19.

[3] = target: T3, human wild-type EGFR protein on the cell surface (human, UniProt P00533 25-1210); test: FACS on A431 tumor cells
T3 construct: whole, on cells; Endogenous on A431, HEB, U87MG cells and normal human primary hepatocytes; transfected on CHOk1-EGFR cells; The cell is named under assay; also called A431; HEB
Protocol: (§1) The preparation of U87MG-EGFRvIII required for FACS detection is as described in the preparation of the immunogen B in example 1. Normal human primary hepatocytes are purchased from BioreclamationIVT, and A431 tumor cells are purchased from ATCC. The recovered hepatocytes are directly used for FACS detection, and the recovered U87MG-EGFRvIII and A431 cells are subjected to an expanded culture to 90% confluence in a T-75 cell culture flask; the medium is sucked out, and the cells are washed twice with a HBSS buffer (Hanks Balanced Salt Solution) (purchased from Invitrogen), and then treated with an enzyme-free cell dissociation solution (Versene solution: purchased from Life Technology) and collected. The cells are washed twice with the HBSS buffer and are counted, and then the cells are diluted with the HBSS buffer to 2×10⁶ cells/ml, added with 1% goat serum blocking solution, with the percentage being the mass percentage, and incubated on ice for 30 minutes, and then centrifugally washed twice with the HBSS buffer. The collected cells are resuspended to 2×10⁶ cells/mL with an FACS buffer (HBSS+2% FBS, with the percentage being the volume percentage), added to a 96-well FACS reaction plate at 100 μL/well, then added with 100 μL/well of the purified EGFRvIII antibody (samples to be tested) obtained in example 12, and incubated on ice for 2 hours. The plate is centrifugally washed twice with the FACS buffer, added with 100 μL/well of a 1:1000 diluted fluorescence (Alexa 488) labeled secondary antibody (purchased from Invitrogen), and incubated on ice for 1 hour. The plate is centrifugally washed 3 times with the FACS buffer, added with 100 μL/well of a fixing solution [4% (v/v) paraformaldehyde] to resuspend the cells, and centrifugally washed twice with the FACS buffer after 10 minutes. The cells are resuspended in 100 μL of the FACS buffer, and the results are detected and analyzed by FACS (FACS Calibur, purchased from BD). Data analysis is performed by using the software (CellQuest) to obtain the mean fluorescence intensity (MFI) of the cells. Data is further analyzed by using the software (GraphPad Prism5) to perform data fitting and calculate EC50.

[4] = target: T4, human EGFRvIII-hFc protein (human, UniProt P00533 25-645); test: ELISA, EGFRvIII-hFc coated
T4 construct: extracellular domain; also called immunogen A; hFc-tagged EGFRvIII protein; not shown: human IgG Fc fragment (hFc) of the pCpC vector

[5] = target: T1, human EGFRvIII protein on the cell …; test: FACS on U87MG-EGFRvIII cells
Method in brief: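 U87MG-EGFRvIII, A431 and primary human hepatocytes (2×10⁶ cells/mL, goat-serum blocked) were incubated with antibody on ice for 2 h, then with an Alexa 488 secondary (1:1000) for 1 h and fixed in 4% paraformaldehyde. Mean fluorescence intensity was read by flow cytometry, and EC50 was derived by curve fitting.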

[6] = target: T3, human wild-type EGFR protein on the …; test: FACS on normal human primary hepatocytes
Protocol: as §1

[7] = target: T3, human wild-type EGFR protein on the …; test: FACS, MFI on A431 cells over MFI on normal primary hepatocytes
Protocol: as §1

B1: Chimeric antibody 75G7-MMAF (antibody, human IgG1, V domains shown)
VH: EVQLQQSGPELVKPGASVKIPCKASGYTFTDYNMDWVKQSHGKSLEWIGDINPNNGDTIYNQKFKGKATLTVDKSSSTAYMELRSLTSEDTAVYYCARGDYDGYYPVYYAMDYWGQGTSVTVSS
VL: ENVLTQSPAIMSASPGEKVTMTCRASSSVSSSYLHWYQQKSGASPKLWIFSTSNLAAGVPARFSGSGSGTSYSLTVSSVEAEDAATYYCQQYSGYPLTFGAGTKLELK
modifications: MC-MMAF coupled after TCEP reduction (sites not given); DAR 3.40 for the antibody
[1]
  IC50, nM; cell killing of U87MG-hEGFRvIII (CellTiter-Glo, 5 days): 0.27 nM

B2: Chimeric antibody 63A10-MMAF (antibody, human IgG1, V domains shown)
VH: QVQLQQSGAELARPGASVKMSCKASGYTFISFTMHWVKQRPGQGLEWIGYINPNSGYTKYNQKFKDKATLTAGQSSSTAYMQLSSLTSEDSAVYYCTRGGGRGFAYWGQGTLVTVSA
VL: DILMTQSPSSMSVSLGDTVTITCHASQDINSNIGWLQQKPGKSFKALIYHGTNLEDGVPSRFSGSGSGADYSLTISSLESEDFADYYCVQYAQFPFTFGSGTKLEIK
modifications: MC-MMAF coupled after TCEP reduction (sites not given); DAR 3.10 for the antibody
[1]
  IC50, nM; cell killing of U87MG-hEGFRvIII (CellTiter-Glo, 5 days): 0.01 nM

B3: Chimeric antibody 64F1-MMAF (antibody, human IgG1, V domains shown)
VH: B2 VH with I30S, F32Y, V37A, N54S, G73D, Q74K, A92I, T97A
VL: QIVLTQSPAIMSASPGERVTMTCSASSSVSYMYWYQQKPGSSPRLLIYDTSNLASGVPVRFSGSGSGTSYSLTISRVEAEDAATYYCQQWSSYSLTFGAGTKLELK
modifications: MC-MMAF coupled after TCEP reduction (sites not given); DAR 4.05 for the antibody
[1]
  IC50, nM; cell killing of U87MG-hEGFRvIII (CellTiter-Glo, 5 days): 0.01 nM

B4: Chimeric antibody 7E5-MMAF (antibody, human IgG1, V domains shown)
VH: EIQLQQSGPELVKPGASVKVSCKASGYSFTDYNMYWVKQSHGKSLEWIGYVDPSNGGTNYNQKFKGKATLTVDKSSSTAFMHLNSLTSEDSAVYYCARGFFDYWGQGTTLTVSS
VL: DIVMTQSPSSLTVTAGEKVTMSCKSSQSLLNSGNQKNYLTWYQQKPGQPPKLLIYWASNRESGVPDRFTGSGSGKDFTLTISSVQAEDLAVYYCQNDYRYPVTFGAGTKLELK
modifications: MC-MMAF coupled after TCEP reduction (sites not given); DAR 3.51 for the antibody
[1]
  IC50, nM; cell killing of U87MG-hEGFRvIII (CellTiter-Glo, 5 days): 0.04 nM

B5: Chimeric antibody 75G7 (antibody, human IgG1, V domains shown)
VH: B1 VH
VL: B1 VL
notes: also called c75G7C6; wild-type chimeric antibody c75G7C6
[2]
  EC50 (read off the curve): ~0.05 nM

B6: Chimeric antibody 64F1 (antibody, human IgG1, V domains shown)
VH: B2 VH with I30S, F32Y, V37A, N54S, G73D, Q74K, A92I, T97A
VL: B3 VL
notes: also called 64F1F8 (chimeric)
[2]
  EC50 (read off the curve): ~0.01 nM

B7: Humanized antibody h75G7C6-13 (antibody, human IgG1, V domains shown)
VH: QVQLVQSGAEVKKPGASVKVSCKASGYTFTDYNMDWVKQAPGQGLEWIGDINPNNADTIYNQKFKGRVTLTVDKSTSTVYMELSSLRSEDTAVYYCARGDYDGYYPVYYAMDYWGQGTTVTVSS
VL: EIVLTQSPATLSLSPGERATLSCRASSSVSSSYLHWYQQKPGQAPRLLIYSTSNLAAGIPARFSGSGSGTDFTLTISSLEPEDFAVYYCQQYSGYPLTFGGGTKVEIK
notes: also called VH-g2/VL-g0
[3]
  MFI: 11500 MFI
[4]
  EC50: 0.48 nM
  Maximum OD450 value: 3.16 OD450
[5]
  EC50: 6.77 nM
  Maximum mean fluorescence intensity: 18700 MFI
[6]
  MFI: 256 MFI
[7]
  Selective window (MFI A431/Hepatocytes): 44.7 fold

B8: Humanized antibody h75G7C6-15 (antibody, human IgG1, V domains shown)
VH: B7 VH
VL: B7 VL with I2N, A44S, Y50F, F72Y
notes: also called VH-g2/VL-g2
[3]
  MFI: 13000 MFI
[4]
  EC50: 0.29 nM
  Maximum OD450 value: 3.19 OD450
[5]
  EC50: 6.45 nM
  Maximum mean fluorescence intensity: 18900 MFI
[6]
  MFI: 287 MFI
[7]
  Selective window (MFI A431/Hepatocytes): 45.3 fold

B9: Humanized antibody h75G7C6-16 (antibody, human IgG1, V domains shown)
VH: B7 VH
VL: B7 VL with I2N, A44S, Y50F, I59V, F72Y
notes: also called VH-g2/VL-g3
[3]
  MFI: 12400 MFI
[4]
  EC50: 0.27 nM
  Maximum OD450 value: 2.97 OD450
[5]
  EC50: 6.74 nM
  Maximum mean fluorescence intensity: 18900 MFI
[6]
  MFI: 269 MFI
[7]
  Selective window (MFI A431/Hepatocytes): 46.2 fold

B10: Humanized antibody h75G7C6-14 (antibody, human IgG1, V domains shown)
VH: B7 VH
VL: B7 VL with I2N, Y50F, F72Y
notes: also called VH-g2/VL-g1
[3]
  MFI: 11500 MFI
[4]
  EC50: 0.32 nM
  Maximum OD450 value: 3.03 OD450
[5]
  EC50: 6.37 nM
  Maximum mean fluorescence intensity: 18500 MFI
[6]
  MFI: 248 MFI
[7]
  Selective window (MFI A431/Hepatocytes): 46.2 fold
